Results taken from article PMC3912212.

Tests used:
[1] = biological target: paclitaxel-stabilized microtubules (bovine brain tubulin) (bovine (purified from juvenile bovine brains)) (UniProt Q6B856)
[2] = biological target: subtilisin-digested microtubules (C-terminal tails of tubulin removed) (bovine (purified from juvenile bovine brains))
[3] = biological target: paclitaxel-stabilized microtubules (bovine brain tubulin) (bovine (purified from juvenile bovine brains)) (UniProt Q6B856); experiment: calculated from the TIRF intensity titration (KD) and the single-molecule lifetimes (koff); association rate constant inferred from KD and koff, not measured directly
[4] = biological target: paclitaxel-stabilized microtubules (bovine brain tubulin) (bovine (purified from juvenile bovine brains)) (UniProt Q6B856); experiment: TIRF microscopy, fluorescence intensity on microtubules; surface-immobilized microtubules; CCA-GFP with no added salt, 25 mM KCl or 50 mM KCl; line-scan intensity, mean ± SD
[5] = biological target: paclitaxel-stabilized microtubules (bovine brain tubulin) (bovine (purified from juvenile bovine brains)) (UniProt Q6B856); experiment: TIRF microscopy, fluorescence intensity on microtubules; one flow chamber containing both brightly-labeled microtubules and dimly-labeled, subtilisin-digested microtubules; CCA-GFP in solution; line-scan intensity, mean ± SD
[6] = biological target: paclitaxel-stabilized microtubules (bovine brain tubulin) (bovine (purified from juvenile bovine brains)) (UniProt Q6B856); experiment: TIRF microscopy, single-molecule assay for microtubule-associated proteins; rhodamine-labeled microtubules immobilised on the surface by anti-rhodamine antibodies; CCA-GFP in solution; lifetimes of tracked single molecules, exponential fit, corrected for photobleaching
[7] = biological target: paclitaxel-stabilized microtubules (bovine brain tubulin) (bovine (purified from juvenile bovine brains)) (UniProt Q6B856); experiment: TIRF microscopy, fluorescence intensity on microtubules against concentration; fluorescently-labeled microtubules adhered to cover glass; CCA-GFP introduced at increasing concentrations and allowed to equilibrate; line-scan intensity fit to a Michaelis-Menten curve (binding isotherm)

normalized 32P band intensity of the INBox motif (CCA auto-phosphorylation) in an in vitro kinase assay with 3 µM microtubules; buffer control 0.62 [1]: 0.92 a.u.
normalized 32P band intensity of the INBox motif (CCA auto-phosphorylation) in an in vitro kinase assay with 3 µM subtilisin-digested microtubules; buffer control 0.62, undigested microtubules 0.92 [2]: 0.64 a.u.
kon [3]: 8.25e+06 M⁻¹ s⁻¹
CCA-GFP intensity on microtubules, 25 mM KCl added [4]: 117 a.u.
CCA-GFP intensity on microtubules, 50 mM KCl added [4]: 27 a.u.
CCA-GFP intensity on microtubules, no added salt [4]: 277 a.u.
GFP intensity on undigested microtubules [5]: 375 a.u.
koff [6]: 0.66 s⁻¹
mean residence time on the lattice [6]: 1.5 s
Kd [7]: 80 nM
Substance: CCA-GFP, minimal chromosome passenger complex of INCENP a.a. 491-873 (coiled-coil domain and INBox) and Aurora-B (from UniProt O13024 491-873; Q6DE08 1-361)
